Test results published in patent publication US20230071609A1 (Genentech, published 2023).
Changes are numbered by the printed parent chain. Values belong to the binder of their own block, whether it stands above or below them.

Legend:
[1] = target: T1, native full length untagged APOL1-G0 (iAPOL1-CHO, construct a) (human, UniProt O14791 28-398); test: immunofluorescence, PFA-fixed permeabilized iAPOL1-CHO cells
T1 construct: Also used as CHO lysate in western blots; also called iAPOL1-G0; WT iAPOL1-G0
T1 sequence: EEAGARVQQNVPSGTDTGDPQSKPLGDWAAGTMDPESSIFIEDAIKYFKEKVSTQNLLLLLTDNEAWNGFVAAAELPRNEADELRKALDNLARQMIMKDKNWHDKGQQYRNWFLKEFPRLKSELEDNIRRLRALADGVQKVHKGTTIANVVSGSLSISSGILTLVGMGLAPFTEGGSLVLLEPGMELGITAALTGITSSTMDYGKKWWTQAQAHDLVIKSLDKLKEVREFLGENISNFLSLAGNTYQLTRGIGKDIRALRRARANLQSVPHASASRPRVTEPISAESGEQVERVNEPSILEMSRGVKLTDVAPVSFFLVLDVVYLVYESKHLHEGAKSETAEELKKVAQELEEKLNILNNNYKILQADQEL
Description: APOL2 is shown stained with 3.6D12 (a mAb to the N-terminal pore-forming domain (PFD)), although similar results were obtained with the other 43 APOL2-cross reactors (all to the PFD, data not shown). […] APOL1 is shown stained with PFD mAb 3.7D6, membrane-addressing domain (MAD) mAb 3.3A8, or SRA-interacting domain (SRA-ID) mAb 3.1C1, each detected with Alexa488 anti-mouse (see Example 1 below for epitope mapping), although similar results were obtained with all the other APOL1-specific antibodies to all three domains (data not shown). The reticular ER pattern persists in digitonin (plasma membrane only)-permeabilized cells for APOL2, but not APOL1, indicating APOL2 is on the cytoplasmic face of the ER, while APOL1 is inside. The nuclear membrane signal for APOL1 with digitonin is also seen without detergent in some cells since PFA semi-permeabilizes the nuclear membrane (data not shown). With digitonin, some of the more sensitive antibodies, including the PFD (3.7D6) and SRA-ID (3.1C1) antibodies shown here (but not MAD antibody 3.3A8), additionally detected APOL1 on the plasma membrane (arrowhead), which is topologically equivalent to the ER lumen.
Cells were plated on LabTekII (Nalge Nunc 154534) slides and fixed at 70-100% confluency. For mAb screening, cells were fixed/permeabilized for 5 min in −20° C. methanol (EMD MX0485-6). […]

[2] = target: T2, iAPOL1-G0 in podocytes (EIK variant, doxycycline-inducible, in APOL1 KO podocytes) (human, UniProt O14791 29-398); test: immunoelectron microscopy, APOL1-G0 podocytes
T2 construct: Stably re-expressed untagged APOL1 isoform A in APOL1 KO clone 89401-3; also called iAPOL1-G0 podocytes; iAPOL1 podocytes
T2 chain: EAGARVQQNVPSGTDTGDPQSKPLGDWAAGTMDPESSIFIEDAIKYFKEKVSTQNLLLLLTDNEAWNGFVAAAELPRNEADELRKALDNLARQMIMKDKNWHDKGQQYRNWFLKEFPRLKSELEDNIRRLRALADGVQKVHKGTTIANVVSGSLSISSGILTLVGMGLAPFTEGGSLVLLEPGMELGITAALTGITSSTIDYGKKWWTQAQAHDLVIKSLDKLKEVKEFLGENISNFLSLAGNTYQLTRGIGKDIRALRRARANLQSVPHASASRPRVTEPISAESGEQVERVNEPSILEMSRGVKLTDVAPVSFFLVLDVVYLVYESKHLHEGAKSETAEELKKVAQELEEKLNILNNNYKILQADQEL
Procedure: Scale bars are 200 nm. APOL1 appears more closely associated with the inner ER membrane face than does the luminal KDEL.
For iEM, 1.4×10⁶ HEK-293 cells in T25 flasks were reverse transfected with 5.4 μg APOL1 or APOL2 cDNA with 12 μl Fugene 6 (Roche 11814443001) for 50 h or 65 h, respectively. Podocytes and transiently transfected HEK-293 cells were fixed with 4% paraformaldehyde in 0.1M phosphate buffer (PB), pH 7.4, for 2 h at room temperature, then overnight at 4° C., and with 2% paraformaldehyde, 0.2% glutaraldehyde in 0.1 M phosphate buffer (PB), pH 7.4, for 2 h at room temperature, respectively. Fixations were continued in 1% PFA in 0.1 M PB at 4° C. for several days. […] For quantitation, random images of APOL1/2 expressing HEK-293 cells and podocytes were made. The positions of at least 50 gold particles per antibody were scored as either (i) OMF: overlapping on outer ER membrane surface and cytosol, or located in the cytosol at a distance ≤15 nm between outer ER membrane surface and the 10 nm gold particle surface; (ii) IMF: overlapping on inner ER membrane surface and ER lumen, or located in the lumen at a distance ≤15 nm between inner ER membrane surface and gold particle surface; or (iii) Lumen: within the ER lumen, with a distance >15 nm between the 10 nm gold particle surface and the nearest inner ER membrane surface. […]

binding result [1]: binds
B1: antibody 3.1C1 (antibody, V domains shown)
VH: QVQLQQSGPELVKPGASVRISCKASGYTFTNYFIHWVKQRPGQGLEWIGWINPGNLNTKYTEEFKGKATLTADKSSSTAYIQLNSLTSEDSAVYFCVNGNPFVYWGQGTLVTVSA
VL: DIVMTQSPSSLTVIAGEKVTLNCKSSQSLLNSGNQKKYLTWLQQKPGQPPKLLIYWTSTRDSGVPDRFTGSGSGTDFTLTISSVQAEDLAVYYCQNDYSYPLTFGAGTKLEIKR
notes: Mouse mAb, cloned as murine IgG2a LALAPG; not written separately; also called SRA-ID mAb 3.1C1

binding result [2]: binds
B2: antibody 3.6E10 (antibody, V domains shown)
VH: QVQLQQSGAELAKPGASVKMSCKASGYIFTSYYLHWVKQRPGQGLEWIGYINPNTGYTEYTQNFKDRATLTADKSSSTAYMQLTSLTSEDSAVYFCVNGNPFVYWGQGTLVTVSA
VL: B1 VL with I14T, A15T, L21M, N22T, K24R, K37N, L42F, D61Y
notes: Mouse mAb, cloned as murine IgG2a LALAPG
